How the values were obtained:
[1] = target: base-linker-pTp conjugate (compound 9); experiment: phage crosslinked to biotinylated base-linker-pTp conjugate, captured on streptavidin beads, titered by direct infection with the beads
[2] = target: base-linker-oligodeoxynucleotide conjugate (compound 8); experiment: phage crosslinked to biotinylated base-linker-oligodeoxynucleotide conjugate, captured on streptavidin beads, titered after DNase I release
[3] = target: base-linker-oligodeoxynucleotide conjugate (compound 8); experiment: phage crosslinked to biotinylated base-linker-oligodeoxynucleotide conjugate in EDTA, captured on streptavidin beads, titered by direct infection with the beads
[4] = target: base-linker-oligodeoxynucleotide conjugate (compound 8); experiment: phage without acid peptide incubated with biotinylated oligodeoxynucleotide-peptide B conjugate, captured on streptavidin beads, phage titering

Row | Substance | efficiency of phage immobilization [1] | true immobilization efficiency [2] | efficiency of immobilization [3] | percent of phage immobilized [4]
1 | acid peptide A-pIII fusion displayed on acid helper phage (M13K07 helper phage with the acidic peptide A and a C-terminal GGC extension inserted at the N-terminus of pIII) (from UniProt P69168 1-3) | 10% | 80% | 10% | 
2 | wildtype pIII protein on phage produced with wildtype M13K07 helper phage (from UniProt P69168 19-424) |  |  |  | 0.3%
